Laboratory results reported in patent US20100316644A1 (ACCELERON PHARMA, published 2010).

T1: Activin A (UniProt P08476 311-426)
T1 sequence (looked up): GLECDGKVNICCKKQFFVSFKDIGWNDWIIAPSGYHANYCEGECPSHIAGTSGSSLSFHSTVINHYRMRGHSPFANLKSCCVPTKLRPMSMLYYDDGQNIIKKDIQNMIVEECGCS

T2: Activin B (UniProt P09529 293-407)
T2 sequence (looked up): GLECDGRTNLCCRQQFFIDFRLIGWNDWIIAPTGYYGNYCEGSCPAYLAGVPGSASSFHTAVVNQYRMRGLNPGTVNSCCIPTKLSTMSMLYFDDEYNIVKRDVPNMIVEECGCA

B1: ActRIIB(20-134)-hFc (Fc fusion, not shown: a dimerising Fc or GST)
chain: GRGEAETRECIYYNANWELERTNQSGLERCEGEQDKRLHCYASWRNSSGTIELVKKGCWLDDFNCYDRQECVATEENPQVYFCCCEGNFCNERFTHLPEAGGPEVTYEPPPTAPT
notes: The residue range comes from the construct name; also called full-length counterpart ActRIIB(20-134)-hFc
B2: Growth and Differentiation Factor-11 (GDF11) (ligand, UniProt O95390 299-407, looked up)
chain: NLGLDCDEHSSESRCCRYPLTVDFEAFGWDWIIAPKRYKANYCSGQCEYMFMQKYPHTHLVQQANPRGSAGPCCTPTKMSPINMLYFNDKQQIIYGKIPGMVVDRCGCS
notes: also called BMP11

How the values were obtained:
Assay in all cases: Biacore, steady-state affinity fit
Activin A = target: T1, Activin A
Text: (§1) Kd values were obtained by steady-state affinity fit due to very rapid association and dissociation of the complex, which prevented accurate determination of kₒₙ and koff.

Activin B = target: T2, Activin B
Text: as §1

ActRIIB(20-134)-hFc = target: B1
Text: as §1

Kd (Activin A) | Kd (Activin B) | Kd (ActRIIB(20-134)-hFc) | Binder
0.016 nM | 0.012 nM |  | B1
 |  | 0.036 nM | B2
